Data as given in US20180155451A1 (published 2018).

T1: FcγRIIb (human, UniProt P31994 43-217)
T1 construct: extracellular domain; also called FcgRIIb; 2b; not shown: His tag attached to the C terminus
T1 sequence (looked up): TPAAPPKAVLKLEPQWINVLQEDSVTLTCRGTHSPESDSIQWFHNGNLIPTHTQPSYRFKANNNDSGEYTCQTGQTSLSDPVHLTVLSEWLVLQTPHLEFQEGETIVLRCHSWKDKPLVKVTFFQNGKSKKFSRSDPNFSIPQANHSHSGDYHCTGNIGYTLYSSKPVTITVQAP

T2: FcγRIIa H (human, UniProt P12318 34-217)
T2 construct: extracellular domain; also called FcgRIIa H; FcγRIIa type H; not shown: His tag attached to the C terminus
T2 sequence (looked up): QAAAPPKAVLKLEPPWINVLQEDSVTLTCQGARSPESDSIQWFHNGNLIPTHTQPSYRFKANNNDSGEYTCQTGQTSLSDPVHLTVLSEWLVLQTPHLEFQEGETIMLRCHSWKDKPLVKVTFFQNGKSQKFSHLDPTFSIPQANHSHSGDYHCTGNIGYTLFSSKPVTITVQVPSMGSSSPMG

T3: FcγRIIb extracellular domain with C-terminal His tag (human, UniProt P31994 43-217)
T3 construct: extracellular domain; also called 2b; FcgRIIb
T3 sequence (looked up): T1 sequence (looked up)

B1: GpH7-A5/GpH7-B3 variant E269_01G/GpL16-k0 (antibody, human IgG1, kappa)
heavy 1: not shown
heavy 2: not shown
light: DIVMTQSPLSLPVTPGEPASISCQASESLVHSNRNTYLHWYLQKPGQSPQLLIYKVSNRFSGVPDRFSGSGSGTDFTLKISRVEAEDVGVYYCSQNTHVPPTFGQGTKVEIERTVAAPSVFIFPPSDEQLKSGTASVVCLLNNFYPREAKVQWKVDNALQSGNSQESVTEQDSKDSTYSLSSTLTLSKADYEKHKVYACEVTHQGLSSPVTKSFNRGEC
notes: He Ab: alteration in one H chain only; also called He Ab
B2: GpH7-A5/GpH7-B3 variant E269_13S/GpL16-k0 (antibody, human IgG1, kappa)
heavy 1: not shown
heavy 2: not shown
light: B1 light
notes: as for B1
B3: GpH7-A5/GpH7-B3 variant E269_11K/GpL16-k0 (antibody, human IgG1, kappa)
heavy 1: not shown
heavy 2: not shown
light: B1 light
notes: as for B1
B4: GpH7-A5/GpH7-B3 variant E269_08L/GpL16-k0 (antibody, human IgG1, kappa)
heavy 1: not shown
heavy 2: not shown
light: B1 light
notes: as for B1
B5: GpH7-A5/GpH7-B3 variant E269_06M/GpL16-k0 (antibody, human IgG1, kappa)
heavy 1: not shown
heavy 2: not shown
light: B1 light
notes: as for B1
B6: GpH7-A5/GpH7-B3 variant E269_02A/GpL16-k0 (antibody, human IgG1, kappa)
heavy 1: not shown
heavy 2: not shown
light: B1 light
notes: as for B1
B7: GpH7-A5/GpH7-B3 variant E269_12R/GpL16-k0 (antibody, human IgG1, kappa)
heavy 1: not shown
heavy 2: not shown
light: B1 light
notes: as for B1
B8: GpH7-A5/GpH7-B3 variant E269_18N/GpL16-k0 (antibody, human IgG1, kappa)
heavy 1: not shown
heavy 2: not shown
light: B1 light
notes: as for B1
B9: GpH7-A5/GpH7-B3 variant E269_03V/GpL16-k0 (antibody, human IgG1, kappa)
heavy 1: not shown
heavy 2: not shown
light: B1 light
notes: as for B1
B10: GpH7-A5/GpH7-B3 variant E269_07I/GpL16-k0 (antibody, human IgG1, kappa)
heavy 1: not shown
heavy 2: not shown
light: B1 light
notes: as for B1
B11: GpH7-A5/GpH7-B3 variant E269_16H/GpL16-k0 (antibody, human IgG1, kappa)
heavy 1: not shown
heavy 2: not shown
light: B1 light
notes: as for B1
B12: GpH7-A5/GpH7-B3 variant L235_12R/GpL16-k0 (antibody, human IgG1, kappa)
heavy 1: not shown
heavy 2: not shown
light: B1 light
notes: as for B1
B13: GpH7-A5/GpH7-B3 variant L234_02A/GpL16-k0 (antibody, human IgG1, kappa)
heavy 1: not shown
heavy 2: not shown
light: B1 light
notes: Heterodimerized IgG1, mutation in the GpH7-B3 chain only; also called He Ab
B14: GpH7-A5/GpH7-B3 variant L235_01G/GpL16-k0 (antibody, human IgG1, kappa)
heavy 1: not shown
heavy 2: not shown
light: B1 light
notes: as for B13
B15: GpH7-A5/GpH7-B3 variant L234_05P/GpL16-k0 (antibody, human IgG1, kappa)
heavy 1: not shown
heavy 2: not shown
light: B1 light
notes: as for B13
B16: GpH7-A5/GpH7-B3 variant S239_12R/GpL16-k0 (antibody, human IgG1, kappa)
heavy 1: not shown
heavy 2: not shown
light: B1 light
notes: as for B13

target: T4, FcγRIIIa extracellular domain with C-terminal His tag (human, UniProt P08637 17-208); assay: SPR; He/Con_3a over He/Con_2b (FcγRIIb)
T4 construct: extracellular domain; also called 3a; FcgRIIIa
T4 sequence (P08637 17-208): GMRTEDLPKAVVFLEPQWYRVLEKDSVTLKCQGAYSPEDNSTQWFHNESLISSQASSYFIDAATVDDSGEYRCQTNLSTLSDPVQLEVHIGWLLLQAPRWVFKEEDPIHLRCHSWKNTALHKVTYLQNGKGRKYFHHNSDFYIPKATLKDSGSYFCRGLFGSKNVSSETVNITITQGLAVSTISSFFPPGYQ

**Q.** B1 was tested. Which “He_3a/2b (IIIa/IIb)” value did it give?
**A.** 1.21 ratio

**Q.** Which “He_3a/2b (IIIa/IIb)” value does the source give for B2 here?
**A.** 1.31 ratio

**Q.** B3 was tested. Which “He_3a/2b (IIIa/IIb)” value did it give?
**A.** 2.47 ratio

**Q.** How did the “He_3a/2b (IIIa/IIb)” value turn out when B4 was run?
**A.** 1.21 ratio

**Q.** Which “He_3a/2b (IIIa/IIb)” value does the source give for B5 here?
**A.** 1.25 ratio

**Q.** Which “He_3a/2b (IIIa/IIb)” value does the source give for B6 here?
**A.** 1.38 ratio

**Q.** How did the “He_3a/2b (IIIa/IIb)” value turn out when B7 was run?
**A.** 1.72 ratio

**Q.** How did the “He_3a/2b (IIIa/IIb)” value turn out when B8 was run?
**A.** 1.29 ratio

**Q.** How did the “He_3a/2b (IIIa/IIb)” value turn out when B9 was run?
**A.** 1.25 ratio

**Q.** How did the “He_3a/2b (IIIa/IIb)” value turn out when B10 was run?
**A.** 1.27 ratio

**Q.** Which “He_3a/2b (IIIa/IIb)” value does the source give for B11 here?
**A.** 1.33 ratio

**Q.** How did the “He_3a/2b (IIIa/IIb)” value turn out when B12 was run?
**A.** 4.29 ratio

target: T1, FcγRIIb; assay: SPR (Biacore), antibody captured, FcγR as analyte; binding relative to GpH7-A5/GpH7-B3/GpL16-k0 = 100

**Q.** For B13, which He/Con_2b is on record?
**A.** 64.9 control = 100

**Q.** Which He/Con_2b does the source give for B14 here?
**A.** 35.4 control = 100

**Q.** For B15, which He/Con_2b is on record?
**A.** 72.9 control = 100

**Q.** B16 was tested. Which He/Con_2b did it give?
**A.** 39.1 control = 100

target: T2, FcγRIIa H; assay: as above

**Q.** How did the He/Con_2aH turn out when B13 was run?
**A.** 81 control = 100

**Q.** For B14, which He/Con_2aH is on record?
**A.** 54.1 control = 100

**Q.** With B15 as the binder, how does the He/Con_2aH read?
**A.** 93.5 control = 100

**Q.** With B16 as the binder, how does the He/Con_2aH read?
**A.** 57.1 control = 100

target: T3, FcγRIIb extracellular domain with …; assay: SPR, relative to GpH7-A5/GpH7-B3/GpL16-k0
Method: (§1) The heterodimerized antibodies He Abs in which one of the H chains was introduced with an alteration were assayed for their binding activities to each activating FcγR and inhibitory FcγR according to the method described in Example 4. […] The activating FcγRs in FIGS. 26, 27, 28, and 29 are FcγRIa, FcγRIIa (R), FcγRIIa (H), and FcγRIIIa, respectively.
(§2) Analysis of interaction between objective antibody and the FcγR was carried out using Biacore T100 (GE Healthcare). HBS-EP+ (GE Healthcare) was used as the running buffer, and the measurement temperature was set to 25° C. Chips produced by immobilizing the antigen peptide by the amine coupling method to a Series S Sencor Chip CM5 (GE Healthcare), or alternatively, chips produced by allowing preliminarily biotinylated antigen peptides to interact with and immobilize onto a Series S Sensor Chip SA (certified) (GE Healthcare) were used. Antibodies of interest were captured onto an antigen peptide-immobilized chip, and allowed to interact to each FcγR diluted with running buffer. To regenerate and repeatedly use the chip, the antibodies captured on the chip were washed off by reacting 10 mM glycine-HCl, pH 1.5.

**Q.** Which He/Con_2b does the source give for B1 here?
**A.** 51.5 control=100

**Q.** With B2 as the binder, how does the He/Con_2b read?
**A.** 47.8 control=100

**Q.** With B3 as the binder, how does the He/Con_2b read?
**A.** 17.8 control=100

**Q.** How did the He/Con_2b turn out when B4 was run?
**A.** 42.9 control=100

**Q.** For B5, which He/Con_2b is on record?
**A.** 46.7 control=100

**Q.** With B6 as the binder, how does the He/Con_2b read?
**A.** 49.9 control=100

**Q.** Which He/Con_2b does the source give for B7 here?
**A.** 25.2 control=100

**Q.** With B8 as the binder, how does the He/Con_2b read?
**A.** 44.8 control=100

**Q.** With B9 as the binder, how does the He/Con_2b read?
**A.** 45.1 control=100

**Q.** Which He/Con_2b does the source give for B10 here?
**A.** 43.9 control=100

**Q.** For B11, which He/Con_2b is on record?
**A.** 38.5 control=100

target: T4, FcγRIIIa extracellular domain with …; assay: SPR, relative to GpH7-A5/GpH7-B3/GpL16-k0
Method: as §1, §2

**Q.** For B1, which He/Con_3a is on record?
**A.** 62.2 control=100

**Q.** Which He/Con_3a does the source give for B2 here?
**A.** 62.7 control=100

**Q.** Which He/Con_3a does the source give for B3 here?
**A.** 44 control=100

**Q.** With B4 as the binder, how does the He/Con_3a read?
**A.** 52.1 control=100

**Q.** B5 was tested. Which He/Con_3a did it give?
**A.** 58.5 control=100

**Q.** How did the He/Con_3a turn out when B6 was run?
**A.** 68.7 control=100

**Q.** B7 was tested. Which He/Con_3a did it give?
**A.** 43.2 control=100

**Q.** B8 was tested. Which He/Con_3a did it give?
**A.** 57.8 control=100

**Q.** B9 was tested. Which He/Con_3a did it give?
**A.** 56.6 control=100

**Q.** With B10 as the binder, how does the He/Con_3a read?
**A.** 55.8 control=100

**Q.** Which He/Con_3a does the source give for B11 here?
**A.** 51.2 control=100

**Q.** For B12, which He/Con_3a is on record?
**A.** 41.2 control=100

target: T2, FcγRIIa H; assay: ratio of He/Con_2aH to He/Con_2b (relative SPR binding to FcγRIIa H over FcγRIIb)

**Q.** Which “He_2aH/2b (IIaH/IIb)” value does the source give for B13 here?
**A.** 1.25

**Q.** B14 was tested. Which “He_2aH/2b (IIaH/IIb)” value did it give?
**A.** 1.53

**Q.** B15 was tested. Which “He_2aH/2b (IIaH/IIb)” value did it give?
**A.** 1.28

**Q.** With B16 as the binder, how does the “He_2aH/2b (IIaH/IIb)” value read?
**A.** 1.46
